Results from the supplement of paper PMC10126150.
± gives the standard deviation of the averaged measurements.

Tested on: ATP
Test: switch fluorescence ratio, 500 uM ATP over buffer (Cy3 cluster intensity, sum of 5 cycles each) (fold (ratio)); higher = stronger signal-on switching upon ATP binding; sequences stand for … in TCGTCGGCAGCGTCAGATGTGTATAAGAGACAGTTTTTTTTTTTTTTTTTTTTTTTTT…TC
Settings: aptamer strand: ATP DNA aptamer (quencher-CACCTGGGGGAGTATTGCGGAGGAAGG + anchor), 100 nM annealed; ATP concentration: 500 uM
Procedure, shortened: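 Per cluster, summed Cy3 intensity from the target cycles was divided by that from the buffer cycles to give the fluorescence ratio, then averaged per switch-domain sequence. Clusters outside 100-1000 RFU were excluded. The Cy3-labelled switching-strand clusters, on a modified Illumina MiSeq flow-cell, were annealed to 100 nM quencher-labelled ATP aptamer and imaged in selection buffer, then after 15 min with 500 uM ATP at 22 °C, for five cycles with NaOH stripping and re-annealing between them.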
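Further: ATP exposure 15 min at 22 °C before imaging.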

Sequence	switch fluorescence ratio
GAGTTGAGGA	0.98 ± 0.014
GAGTTGGGGG	1.02 ± 0.012
GAGTTTATGT	1.01 ± 0.022
GAGTTTATTA	0.994 ± 0.021
GAGTTTGGTG	0.94 ± 0.033
GAGTTTGTAT	0.961 ± 0.028
GAGTTTTGGT	1.03 ± 0.019
GATAAAAATA	0.998 ± 0.018
GATAAAGACG	0.9893 ± 0.0059
GATAACGTTT	0.99 ± 0.017
GATAAGAGCC	1.008 ± 0.0024
GATAAGGGGT	0.981 ± 0.035
GATAATAGGT	0.993 ± 0.016
GATAATGGTA	1.008 ± 0.005
GATAATTGGT	0.998 ± 0.012
GATAATTTTG	0.989 ± 0.027
GATACATTGC	1.07 ± 0.029
GATACTCGCG	1.03 ± 0.0056
GATACTGTGA	0.995 ± 0.023
GATACTTCTA	0.972 ± 0.026
GATAGAAAGA	0.964 ± 0.025
GATAGACGAG	1.03 ± 0.043
GATAGACGGA	0.99171 ± 0.00018
GATAGACTCT	0.975 ± 0.029
GATAGAGCAT	1.01 ± 0.013

Sequence	switch fluorescence ratio
GATAGATAGA	0.9957 ± 0.002
GATAGATTAG	0.998 ± 0.0038
GATAGCAGCG	1.01 ± 0.064
GATAGCTCTG	1.02 ± 0.021
GATAGCTGGT	0.981 ± 0.025
GATAGCTTAG	0.9935 ± 0.0071
GATAGGGGCT	0.938 ± 0.042
GATAGGGGGA	0.984 ± 0.058
GATAGGTAAG	0.962 ± 0.025
GATAGGTTGT	1.02 ± 0.035
GATAGTAGC	0.978 ± 0.024
GATAGTCTTG	0.985 ± 0.023
GATAGTGGTT	1.022 ± 0.0078
GATAGTGTAG	1.03 ± 0.0034
GATAGTTGGG	0.988 ± 0.02
GATATAAGCT	1.05 ± 0.066
GATATAGAGG	0.986 ± 0.055
GATATAGCTC	0.999 ± 0.038
GATATAGGGT	0.983 ± 0.018
GATATATAGA	0.998 ± 0.032
GATATATTCG	1 ± 0.016
GATATCCGTT	0.976 ± 0.016
GATATCTCCT	1.09 ± 0.011
GATATGCTGG	0.987 ± 0.018
GATATGGATG	0.96 ± 0.032

Sequence	switch fluorescence ratio
GATATGGGTG	1.04 ± 0.049
GATATGTGGT	0.9989 ± 0.004
GATATTCTTT	0.988 ± 0.018
GATATTGAGT	0.9648 ± 0.0073
GATATTGCTA	0.975 ± 0.03
GATATTGGCG	0.956 ± 0.013
GATATTGTAG	0.986 ± 0.026
GATATTTAAG	0.988 ± 0.042
GATATTTTGA	1.02 ± 0.019
GATATTTTTC	1.035 ± 0.0096
GATCAAACGG	1 ± 0.036
GATCAATTAA	0.9942 ± 0.007
GATCAGAGGA	1.05 ± 0.039
GATCATAATG	1.01 ± 0.021
GATCATGCGG	0.9854 ± 0.0089
GATCCGGGTG	1.38 ± 0.45
GATCCTGAAC	1.37 ± 0.12
GATCGCTAGG	0.984 ± 0.035
GATCGCTCGG	1.01 ± 0.02
GATCGGCGTG	1 ± 0.015
GATCGGGACT	0.9826 ± 0.0047
GATCGGGCTA	0.9664 ± 0.0014
GATCGGGCTG	0.903 ± 0.051
GATCGTATGT	0.9838 ± 0.0013
GATCGTTGGT	0.991 ± 0.021

Sequence	switch fluorescence ratio
GATCGTTTGT	1.01 ± 0.021
GATCTACCCA	1.028 ± 0.0089
GATCTACTTG	0.995 ± 0.017
GATCTGGTTT	0.998 ± 0.056
GATCTGTGCG	0.972 ± 0.032
GATCTTATCG	0.984 ± 0.026
GATCTTATTC	0.98506 ± 0.00068
GATGAAAAAT	0.975 ± 0.024
GATGAAGAAA	1.025 ± 0.0026
GATGAATCGG	0.973 ± 0.012
GATGAGAGGG	1.002 ± 0.0059
GATGAGATTT	0.972 ± 0.046
GATGAGTGGT	0.979 ± 0.02
GATGAGTTAG	0.973 ± 0.017
GATGAGTTGA	0.988 ± 0.02
GATGATATTG	0.992 ± 0.012
GATGATCGGG	1.02 ± 0.013
GATGATGGAG	1.02 ± 0.011
GATGATTATC	0.986 ± 0.022
GATGATTCGG	0.984 ± 0.037
GATGCACTCC	1.911 ± 0.0078
GATGCAGCGA	1.107 ± 0.011
GATGCAGGCC	0.892 ± 0.017
GATGCCGGGA	1.02 ± 0.038
GATGCGAGGT	0.952 ± 0.02

Sequence	switch fluorescence ratio
GATGCTCGAA	0.989 ± 0.025
GATGCTTTTT	1.02 ± 0.018
GATGGAAACT	1.008 ± 0.0072
GATGGAAGTT	1 ± 0.018
GATGGACATA	1.031 ± 0.0015
GATGGCCGCG	1.03 ± 0.024
GATGGGATGC	1.07 ± 0.071
GATGGGCACC	1.01 ± 0.012
GATGGGCGGT	0.9773 ± 0.0094
GATGGGGGAA	0.986 ± 0.049
GATGGGGGTC	1.21 ± 0.34
GATGGGTATT	0.968 ± 0.015
GATGGGTCTA	0.966 ± 0.029
GATGGTAAAC	1.05 ± 0.056
GATGGTAGCC	0.9862 ± 0.0098
GATGGTGTGA	0.978 ± 0.014
GATGGTTGCG	1.02 ± 0.022
GATGGTTGGA	0.9825 ± 0.0056
GATGGTTTTT	1 ± 0.016
GATGTACCGC	1.12 ± 0.042
GATGTAGATA	0.9778 ± 0.0032
GATGTAGGGG	0.999 ± 0.024
GATGTAGGTT	0.98 ± 0.029
GATGTAGTTT	0.993 ± 0.027
GATGTCACGA	1.03 ± 0.028

Sequence	switch fluorescence ratio
GATGTCAGGC	0.996 ± 0.01
GATGTCTATC	1.01 ± 0.011
GATGTGCGTG	0.9956 ± 0.0091
GATGTGGCTT	0.961 ± 0.015
GATGTGGTGC	1.016 ± 0.0038
GATGTGTCTG	0.999 ± 0.026
GATGTTATTA	0.979 ± 0.038
GATGTTTCAT	0.979 ± 0.018
GATGTTTTTC	0.97003 ± 0.00087
GATTAAAAAG	0.99 ± 0.062
GATTAAAAT	1.01 ± 0.013
GATTAAATAT	1.02 ± 0.012
GATTAAATTA	1.01 ± 0.021
GATTAAATTT	1.01 ± 0.033
GATTAATGGG	0.995 ± 0.023
GATTACCAAG	1.03 ± 0.025
GATTACGGCC	1.06 ± 0.035
GATTAGGTGT	1.098 ± 0.0067
GATTAGGTTG	0.968 ± 0.072
GATTATAATC	1.01 ± 0.015
GATTATATAT	0.986 ± 0.015
GATTATTTAG	0.997 ± 0.019
GATTCATCTA	0.983 ± 0.029
GATTCATGTT	0.998 ± 0.013
GATTCATTAG	0.9925 ± 0.0015

Sequence	switch fluorescence ratio
GATTCCAAAA	0.975 ± 0.011
GATTCGGGGA	0.999 ± 0.014
GATTCGTTTT	1 ± 0.031
GATTCTTAAG	1 ± 0.022
GATTCTTGTC	1.01 ± 0.035
GATTGAACGG	0.997 ± 0.0086
GATTGAGAGC	0.9928 ± 0.005
GATTGATGGG	0.995 ± 0.024
GATTGCATGA	0.996 ± 0.024
GATTGCCAGG	1.05 ± 0.035
GATTGCGAGG	0.9887 ± 0.0059
GATTGCGCAT	1 ± 0.03
GATTGCTTGA	0.999 ± 0.034
GATTGGAGCG	1.008 ± 0.0031
GATTGGATGA	0.992 ± 0.045
GATTGGGCTG	0.984 ± 0.056
GATTGGGGTG	1 ± 0.035
GATTGGGGTT	0.978 ± 0.036
GATTGGGTCC	1 ± 0.02
GATTGGGTTT	0.999 ± 0.019
GATTGGTGCG	0.976 ± 0.015
GATTGGTTGC	0.9941 ± 0.0019
GATTGTACTC	1.022 ± 0.01
GATTGTAGCT	0.987 ± 0.023
GATTGTGGGG	0.969 ± 0.015

Sequence	switch fluorescence ratio
GATTGTTCTG	0.9804 ± 0.0049
GATTTAAATA	0.98 ± 0.018
GATTTACATA	1.01 ± 0.019
GATTTACATT	1.019 ± 0.0024
GATTTAGACT	1.04 ± 0.071
GATTTATAGG	0.972 ± 0.052
GATTTATGG	0.994 ± 0.058
GATTTCACTC	1 ± 0.026
GATTTCATCA	0.967 ± 0.057
GATTTCATGG	0.9784 ± 0.0044
GATTTGTGTC	0.955 ± 0.081
GATTTTCCGT	1.009 ± 0.009
GATTTTGCGA	0.983 ± 0.033
GATTTTTACG	1 ± 0.033
GCAAAAATCT	1.01 ± 0.046
GCAAAACA	1.3 ± 0.41
GCAAAAGGGA	1.01 ± 0.013
GCAAAAGTTT	0.99 ± 0.012
GCAAAGTGGA	0.9773 ± 0.0047
GCAAATAGTT	0.993 ± 0.024
GCAAATGAGT	1.003 ± 0.0082
GCAAATGTGT	0.969 ± 0.026
GCAACAGCAA	1.04 ± 0.015
GCAACCCTAA	1.02 ± 0.055
GCAACCGGTC	1.054 ± 0.0041
